Assay results published in the supplement of paper PMC9112550, “Optimization of the antimicrobial peptide Bac7 by deep mutational scanning” (BMC Biology, 2022).

system: Escherichia coli TOP10; experiment: shrunken log2 fold change of peptide-encoding DNA abundance (4.5 h post-induction vs induction); higher = less antimicrobial activity (less host growth inhibition); settings: time post-induction: 4.5 h; library: site-saturation at positions 5, 18, 19, 20
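Note: peptides expressed intracellularly from a pBAD plasmid library in pooled LB shake-flask culture, induced with 0.3% L-arabinose, DNA abundance read by NGS, three biological replicates, DESeq2 with apeglm shrinkage.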

| Sequence | shrunken log2 fold change |
| --- | --- |
| RRIRARPPRLPRPRPRPRRSPRP | 0.743 |
| RRIRERPPRLPRPRPRPWDLPRP | -0.164 |
| RRIRHRPPRLPRPRPRPVRSPRP | 0.172 |
| RRIRNRPPRLPRPRPRPFQAPRP | -0.0439 |
| RRIRFRPPRLPRPRPRPQWPPRP | 0.192 |
| RRIRHRPPRLPRPRPRPDLMPRP | -0.175 |
| RRIRQRPPRLPRPRPRPEFRPRP | 0.0728 |
| RRIRDRPPRLPRPRPRPELKPRP | -0.00616 |
| RRIRERPPRLPRPRPRPTEEPRP | 0.00212 |
| RRIRNRPPRLPRPRPRPFWRPRP | -0.0018 |
| RRIRRRPPRLPRPRPRPTCQPRP | 0.775 |
| RRIRGRPPRLPRPRPRPWYFPRP | -0.417 |
| RRIRQRPPRLPRPRPRPKYTPRP | -0.776 |
| RRIRDRPPRLPRPRPRPIIDPRP | -0.02 |
| RRIRERPPRLPRPRPRPFSEPRP | 0.0188 |
| RRIRARPPRLPRPRPRPFYYPRP | -0.485 |
| RRIRKRPPRLPRPRPRPTRTPRP | 0.951 |
| RRIRERPPRLPRPRPRPGQKPRP | 0.2 |
| RRIRVRPPRLPRPRPRPMKKPRP | 0.0174 |
| RRIRFRPPRLPRPRPRPCVPPRP | -0.835 |
| RRIRRRPPRLPRPRPRPHRYPRP | -0.0438 |
| RRIRMRPPRLPRPRPRPGSFPRP | 1.04 |
| RRIRSRPPRLPRPRPRPSNLPRP | -0.193 |
| RRIRNRPPRLPRPRPRPEDCPRP | -0.00844 |
| RRIRWRPPRLPRPRPRPKTVPRP | 0.227 |

| Sequence | shrunken log2 fold change |
| --- | --- |
| RRIRDRPPRLPRPRPRPYPNPRP | -0.0838 |
| RRIRCRPPRLPRPRPRPTFRPRP | 0.0981 |
| RRIRMRPPRLPRPRPRPTTGPRP | 0.467 |
| RRIRERPPRLPRPRPRPILRPRP | 0.109 |
| RRIRIRPPRLPRPRPRPNSMPRP | -1.23 |
| RRIRFRPPRLPRPRPRPNYRPRP | 0.055 |
| RRIRTRPPRLPRPRPRPKPCPRP | -0.126 |
| RRIRIRPPRLPRPRPRPTGVPRP | 0.039 |
| RRIRVRPPRLPRPRPRPFSRPRP | -0.0787 |
| RRIRTRPPRLPRPRPRPMLEPRP | 0.018 |
| RRIRFRPPRLPRPRPRPMDKPRP | -0.301 |
| RRIRWRPPRLPRPRPRPWCQPRP | 0.121 |
| RRIRDRPPRLPRPRPRPWEDPRP | 0.0111 |
| RRIRVRPPRLPRPRPRPEPPPRP | 0.664 |
| RRIRQRPPRLPRPRPRPCEKPRP | -0.00192 |
| RRIRPRPPRLPRPRPRPTYGPRP | -0.171 |
| RRIRCRPPRLPRPRPRPIPKPRP | 0.326 |
| RRIRSRPPRLPRPRPRPCIRPRP | -0.416 |
| RRIRFRPPRLPRPRPRPDTQPRP | 0.0363 |
| RRIRVRPPRLPRPRPRPLDNPRP | -0.0763 |
| RRIRPRPPRLPRPRPRPKDAPRP | 0.164 |
| RRIRTRPPRLPRPRPRPGEAPRP | 0.282 |
| RRIRIRPPRLPRPRPRPREQPRP | 0.198 |
| RRIRARPPRLPRPRPRPAINPRP | -0.00878 |
| RRIRKRPPRLPRPRPRPECLPRP | 0.182 |

| Sequence | shrunken log2 fold change |
| --- | --- |
| RRIRLRPPRLPRPRPRPNAYPRP | 0.0618 |
| RRIRERPPRLPRPRPRPCRTPRP | -0.203 |
| RRIRIRPPRLPRPRPRPVKMPRP | -0.173 |
| RRIRERPPRLPRPRPRPDMIPRP | 0.0157 |
| RRIRIRPPRLPRPRPRPWMKPRP | -0.305 |
| RRIRVRPPRLPRPRPRPGALPRP | 0.0362 |
| RRIRFRPPRLPRPRPRPGFIPRP | -0.257 |
| RRIRYRPPRLPRPRPRPKFMPRP | -0.633 |
| RRIRQRPPRLPRPRPRPMQIPRP | 0.0201 |
| RRIRYRPPRLPRPRPRPYVEPRP | -0.00822 |
| RRIRRRPPRLPRPRPRPKPDPRP | 0.493 |
| RRIRVRPPRLPRPRPRPIVQPRP | -0.223 |
| RRIRSRPPRLPRPRPRPRKSPRP | 0.139 |
| RRIRKRPPRLPRPRPRPGCWPRP | 0.466 |
| RRIRRRPPRLPRPRPRPEWVPRP | 0.344 |
| RRIRTRPPRLPRPRPRPAGVPRP | 0.107 |
| RRIRTRPPRLPRPRPRPQIVPRP | 0.0532 |
| RRIRTRPPRLPRPRPRPSWIPRP | -0.525 |
| RRIRERPPRLPRPRPRPKTWPRP | -0.104 |
| RRIRMRPPRLPRPRPRPMWPPRP | 0.0917 |
| RRIRLRPPRLPRPRPRPTSIPRP | -0.178 |
| RRIRDRPPRLPRPRPRPIVFPRP | -0.0706 |
| RRIRHRPPRLPRPRPRPAKFPRP | -0.139 |
| RRIRCRPPRLPRPRPRPTQKPRP | 0.0827 |
| RRIRSRPPRLPRPRPRPQTAPRP | 0.0464 |

| Sequence | shrunken log2 fold change |
| --- | --- |
| RRIRGRPPRLPRPRPRPISSPRP | 0.393 |
| RRIRVRPPRLPRPRPRPPCCPRP | 0.117 |
| RRIRSRPPRLPRPRPRPTIPPRP | -0.104 |
| RRIRCRPPRLPRPRPRPRKMPRP | -0.00382 |
| RRIRSRPPRLPRPRPRPDWLPRP | 0.153 |
| RRIRTRPPRLPRPRPRPKYSPRP | -0.413 |
| RRIRMRPPRLPRPRPRPRSLPRP | 0.27 |
| RRIRHRPPRLPRPRPRPSLVPRP | -0.264 |
| RRIRCRPPRLPRPRPRPMQRPRP | 0.0282 |
| RRIRPRPPRLPRPRPRPGEGPRP | 0.349 |
| RRIRNRPPRLPRPRPRPIPCPRP | -0.0228 |
| RRIRYRPPRLPRPRPRPFCQPRP | 0.0155 |
| RRIRLRPPRLPRPRPRPMEVPRP | -0.0152 |
| RRIRQRPPRLPRPRPRPCSRPRP | 0.0758 |
| RRIRKRPPRLPRPRPRPPPDPRP | 0.906 |
| RRIRLRPPRLPRPRPRPKLIPRP | -0.219 |
| RRIRSRPPRLPRPRPRPFDDPRP | -0.0842 |
| RRIRIRPPRLPRPRPRPRFDPRP | -0.282 |
| RRIRWRPPRLPRPRPRPGQLPRP | -0.0402 |
| RRIRWRPPRLPRPRPRPGSHPRP | 0.0507 |
| RRIRIRPPRLPRPRPRPGYKPRP | -0.231 |
| RRIRMRPPRLPRPRPRPLIGPRP | -0.0325 |
| RRIRQRPPRLPRPRPRPNDTPRP | -0.752 |
| RRIRWRPPRLPRPRPRPKMVPRP | 0.295 |
| RRIRTRPPRLPRPRPRPDFHPRP | -0.336 |

| Sequence | shrunken log2 fold change |
| --- | --- |
| RRIRVRPPRLPRPRPRPIEYPRP | -0.05 |
| RRIRFRPPRLPRPRPRPPTFPRP | -0.0402 |
| RRIRQRPPRLPRPRPRPIKAPRP | 0.00249 |
| RRIRTRPPRLPRPRPRPHMMPRP | -0.586 |
| RRIRPRPPRLPRPRPRPPSQPRP | 0.334 |
| RRIRHRPPRLPRPRPRPHSDPRP | 0.0468 |
| RRIRTRPPRLPRPRPRPNVPPRP | -0.0447 |
| RRIRNRPPRLPRPRPRPTPHPRP | 0.284 |
| RRIRPRPPRLPRPRPRPYKRPRP | -0.345 |
| RRIRWRPPRLPRPRPRPHHIPRP | -0.612 |
| RRIRWRPPRLPRPRPRPERTPRP | 1.08 |
| RRIRGRPPRLPRPRPRPVCIPRP | 0.344 |
| RRIRNRPPRLPRPRPRPFINPRP | -1.59 |
| RRIRIRPPRLPRPRPRPGYFPRP | -0.904 |
| RRIRMRPPRLPRPRPRPSREPRP | 0.545 |
| RRIRARPPRLPRPRPRPMHLPRP | -0.00822 |
| RRIRWRPPRLPRPRPRPLTFPRP | -0.501 |
| RRIRSRPPRLPRPRPRPDKVPRP | 0.151 |
| RRIRARPPRLPRPRPRPCDWPRP | 0.353 |
| RRIRGRPPRLPRPRPRPPAQPRP | 1.4 |
| RRIRNRPPRLPRPRPRPKKDPRP | 0.0489 |
| RRIRVRPPRLPRPRPRPARMPRP | 0.425 |
| RRIRCRPPRLPRPRPRPLKMPRP | -0.365 |
| RRIRPRPPRLPRPRPRPQFNPRP | -0.5 |
| RRIRDRPPRLPRPRPRPAFYPRP | -0.305 |

| Sequence | shrunken log2 fold change |
| --- | --- |
| RRIRSRPPRLPRPRPRPDCTPRP | 0.038 |
| RRIRGRPPRLPRPRPRPGAIPRP | 1.44 |
| RRIRFRPPRLPRPRPRPGSYPRP | -0.0318 |
| RRIRDRPPRLPRPRPRPNLKPRP | 0.114 |
| RRIRKRPPRLPRPRPRPGEYPRP | 0.156 |
| RRIRCRPPRLPRPRPRPDVSPRP | -0.185 |
| RRIRRRPPRLPRPRPRPGRCPRP | 0.27 |
| RRIRNRPPRLPRPRPRPISQPRP | -0.261 |
| RRIRCRPPRLPRPRPRPVMNPRP | -0.0483 |
| RRIRRRPPRLPRPRPRPPRGPRP | 0.911 |
| RRIRHRPPRLPRPRPRPKFVPRP | -0.0479 |
| RRIRPRPPRLPRPRPRPPCNPRP | -0.0234 |
| RRIRIRPPRLPRPRPRPQNTPRP | -0.86 |
| RRIRCRPPRLPRPRPRPAQVPRP | -0.053 |
| RRIRKRPPRLPRPRPRPATLPRP | 0.312 |
| RRIRRRPPRLPRPRPRPHPNPRP | 0.246 |
| RRIRQRPPRLPRPRPRPHVTPRP | 0.0406 |
| RRIRDRPPRLPRPRPRPYREPRP | -0.748 |
| RRIRDRPPRLPRPRPRPKNWPRP | 2.51 |
| RRIRKRPPRLPRPRPRPQMAPRP | 0.481 |
| RRIRYRPPRLPRPRPRPDTPPRP | 0.0497 |
| RRIRFRPPRLPRPRPRPNWLPRP | -0.0999 |
| RRIRRRPPRLPRPRPRPRWCPRP | 0.0597 |
| RRIRTRPPRLPRPRPRPYNWPRP | -0.143 |
| RRIRLRPPRLPRPRPRPWPLPRP | -0.039 |
